Molecular target: SARS-CoV-2 Receptor Binding Domain (RBD) (SARS-CoV-2, UniProt P0DTC2)
Test: ELISA
Conditions: both partners purified

B1: NIH-CoVnb-112 (VHH)
VHH: DVQLQESGGGLVQPGGSLRLSCAASGLTLDYYAIGWFRQAPGKEREGVSCISSSDGSTYYADSVKGRFTTSRDNAKNTVYLQMNSLKPEDTAVYYCAAVPSTYYSGTYYYTCHPGGMDYWGKGTQVTVSS
notes: also called lead nanobody candidate; anti-SARS-CoV-2 RBD nanobody; source: E. coli BL21 (DE3), periplasm by osmotic shock, purified (HisTrap, Superdex 75)
- EC50: 1.11 nM

— PMC7755911 (Scientific Reports, 2020)
